Results taken from article PMC4409382, “Structural Analysis of the 14-3-3ζ/Chibby Interaction Involved in Wnt/β-Catenin Signaling” (PLoS ONE, 2015).
Blank lines part the entries; values can stand above or below the binder they belong to. Square brackets hold non-standard residues; d marks the D form. Ends that are not written are not given here. pS = N[C@@H](COP(=O)(O)O)C(=O)O

Columns and labels:
[1] = target: T1, 14-3-3ζΔC12 (human, UniProt P63104 1-233); test: ITC; VP-ITC, 25°C; ~1-2 mM peptide titrated in 5 uL aliquots into ~100-200 uM 14-3-3ζ in the cell; 50 mM sodium phosphate, 100 mM NaCl, 1 mM DTT, pH 6.8; one-site model; in duplicate; settings: both partners purified
T1 construct: N-terminal glycine retained after TEV cleavage of the His tag; 14-3-3ζ, human, full-length construct with the 12 C-terminal residues deleted; Unlabelled for ITC; 15N, 13C, 2H labelled for the NMR titrations; also called 14-3-3ζ with the C-terminal 12 residues removed; source: E. coli BL21 (DE3) pLysS, purified (Ni Sepharose, TEV cleavage, second Ni Sepharose pass); not shown: His tag, N-terminal, …
T1 sequence: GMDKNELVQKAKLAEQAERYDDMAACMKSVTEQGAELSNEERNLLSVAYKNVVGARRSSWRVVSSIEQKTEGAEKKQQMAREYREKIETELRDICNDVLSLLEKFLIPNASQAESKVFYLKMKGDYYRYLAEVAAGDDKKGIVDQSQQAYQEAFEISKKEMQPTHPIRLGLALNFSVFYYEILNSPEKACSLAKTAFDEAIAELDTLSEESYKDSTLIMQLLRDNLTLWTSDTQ

[2] = target: the molecule itself; test: crystal structure; 14-3-3ζ (10 mg/mL) co-crystallised with the phosphorylated Cby 18-mer (protein:peptide 1:4), 20 mM Tris pH 7.5, 100 mM NaCl; reservoir 200 mM NH4HCO2, 16-20% PEG 3350; 4°C; 2.41 Å
[3] = target: T2, 14-3-3ζΔC12 (human, UniProt P63104 1-233); test: ITC; duplicate set of titrations; 5 uL aliquots of ~1-2 mM peptide titrated into the 1.4 mL cell with ~100-200 uM 14-3-3ζ; 25 °C; 50 mM sodium phosphate, 100 mM NaCl, 1 mM DTT, pH 6.8; one-site model; n per 14-3-3 monomer; settings: both partners purified
T2 construct: N-terminal glycine retained after TEV cleavage of the His tag; 14-3-3 zeta, human, full-length 14-3-3ζ with the 12 C-terminal residues deleted; source: E. coli BL21 (DE3) pLysS, purified (Ni Sepharose, TEV cleavage, second Ni Sepharose pass); not shown: His tag, N-terminal, cleaved
T2 sequence: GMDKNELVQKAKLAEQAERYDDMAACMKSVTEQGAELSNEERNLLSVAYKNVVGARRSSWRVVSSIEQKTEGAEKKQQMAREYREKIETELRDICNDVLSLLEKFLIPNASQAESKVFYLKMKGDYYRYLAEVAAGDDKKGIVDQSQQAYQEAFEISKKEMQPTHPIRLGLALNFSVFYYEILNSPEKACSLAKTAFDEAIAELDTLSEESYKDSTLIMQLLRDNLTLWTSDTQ

[4] = target: T3, 14-3-3ζ (human, UniProt P63104 1-245); test: as above; settings: both partners purified
T3 construct: N-terminal glycine retained after TEV cleavage of the His tag; 14-3-3 zeta, human, ORF purchased from GeneCopoeia, full-length construct; Dimer (~56 kDa); the stoichiometry n counts on the 14-3-3 monomer; also called full-length 14-3-3ζ; source: E. coli BL21 (DE3) pLysS, purified (Ni Sepharose, TEV cleavage, second Ni Sepharose pass); not shown: His tag, N-terminal, cleaved
T3 sequence: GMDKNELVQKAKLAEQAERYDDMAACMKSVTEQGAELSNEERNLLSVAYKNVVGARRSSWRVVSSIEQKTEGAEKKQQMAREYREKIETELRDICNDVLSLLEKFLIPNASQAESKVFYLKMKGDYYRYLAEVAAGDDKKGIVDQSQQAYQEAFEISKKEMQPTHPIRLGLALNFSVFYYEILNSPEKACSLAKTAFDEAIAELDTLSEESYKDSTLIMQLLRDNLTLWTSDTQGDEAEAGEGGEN

[5] = target: T4, Chibby 18-mer (Homo sapiens, UniProt Q9Y3M2); test: ITC
T4 chain: KTPPRKSA[pS]LSNLHSLDR

[6] = target: T5, Chibby 18-mer L24A (Homo sapiens, UniProt Q9Y3M2); test: ITC
T5 chain: KTPPRKSASLSNAHSLDR

[7] = target: T6, Chibby 13-mer S22P (Homo sapiens, UniProt Q9Y3M2); test: ITC
T6 chain: KTPPRKSASLPNL

[8] = target: T7, Chibby 7-mer S22P (Homo sapiens, UniProt Q9Y3M2); test: ITC
T7 chain: RKSASLP

[9] = target: T8, Chibby 11-mer (Homo sapiens, UniProt Q9Y3M2); test: ITC
T8 chain: H-KTPPRKSA[pS]LS-NH2

[10] = target: T9, Chibby 13-mer (Homo sapiens, UniProt Q9Y3M2); test: ITC
T9 chain: KTPPRKSA[pS]LSNL

[11] = target: T10, Chibby 7-mer (Homo sapiens, UniProt Q9Y3M2); test: ITC
T10 chain: Ac-RKSA[pS]LS-NH2

B2: 14-3-3ζ (human, full-length) (natural protein)
chain: GMDKNELVQKAKLAEQAERYDDMAACMKSVTEQGAELSNEERNLLSVAYKNVVGARRSSWRVVSSIEQKTEGAEKKQQMAREYREKIETELRDICNDVLSLLEKFLIPNASQAESKVFYLKMKGDYYRYLAEVAAGDDKKGIVDQSQQAYQEAFEISKKEMQPTHPIRLGLALNFSVFYYEILNSPEKACSLAKTAFDEAIAELDTLSEESYKDSTLIMQLLRDNLTLWTSDTQGDEAEAGEGGEN
notes: N-terminal glycine retained after TEV cleavage of the His tag; 14-3-3ζ, human, ORF bought from GeneCopoeia, in Gateway pDEST17; full-length; Dimer in the crystal; the ITC stoichiometry counts on the 14-3-3 monomer; also called WT 14-3-3ζ; source: E. coli BL21 (DE3) pLysS, purified (Ni Sepharose, TEV cleavage, second Ni Sepharose pass); not shown: His tag, N-terminal, cleaved
- binding result [2]: binds

B4: pCby 7-mer (peptide)
peptide: Ac-RKSA[pS]LS-NH2
SMILES: CC(=O)N[C@@H](CCCNC(=N)N)C(=O)N[C@@H](CCCCN)C(=O)N[C@@H](CO)C(=O)N[C@@H](C)C(=O)N[C@@H](COP(=O)(O)O)C(=O)N[C@@H](CC(C)C)C(=O)N[C@@H](CO)C(N)=O
notes: Chibby (Cby), human, residues 16-22; also called 16RKSA(pS)LS22; source: synthetic peptide, bought: TUFTS University Core Facility
- Kd [4]: 47.6 µM
- stoichiometry N [4]: 0.94

B7: 14-3-3ζ (protein)
chain: MDKNELVQKAKLAEQAERYDDMAACMKSVTEQGAELSNEERNLLSVAYKNVVGARRSSWRVVSSIEQKTEGAEKKQQMAREYREKIETELRDICNDVLSLLEKFLIPNASQAESKVFYLKMKGDYYRYLAEVAAGDDKKGIVDQSQQAYQEAFEISKKEMQPTHPIRLGLALNFSVFYYEILNSPEKACSLAKTAFDEAIAELDTLSEESYKDSTLIMQLLRDNLTLWTSDTQGDEAEAGEGGEN
- Kd [5]: ~5 µM
- Kd [6]: ~21 µM
- Kd [7]: ~1 µM
- Kd [8]: ~3 µM
- Kd [9]: ~18 µM
- Kd [10]: ~15 µM
- Kd [11]: ~44 µM

Next, values leading:

- Kd [1]: 14.9 µM
- dH [1]: -8.7 ± 0.126 kJ/mol
- stoichiometry N [1]: 0.99
B1: pCby 13-mer (peptide)
peptide: KTPPRKSA[pS]LSNL
notes: Chibby (Cby), human, residues 12-24; free NH2 and COOH ends; also called phosphorylated Cby peptide; source: synthetic peptide, bought: GenScript USA Inc

- Kd [3]: 14.5 µM
- stoichiometry N [3]: 1.06
B3: pCby 13-mer (peptide)
peptide: KTPPRKSA[pS]LSNL
notes: Chibby (Cby), human, residues 12-24; source: synthetic peptide, bought: GenScript USA Inc

- Kd [4]: 3.2 µM
- stoichiometry N [4]: 1.02
B5: pCby S22P 7-mer (peptide)
peptide: Ac-RKSA[pS]LP-NH2
SMILES: CC(=O)N[C@@H](CCCNC(=N)N)C(=O)N[C@@H](CCCCN)C(=O)N[C@@H](CO)C(=O)N[C@@H](C)C(=O)N[C@@H](COP(=O)(O)O)C(=O)N[C@@H](CC(C)C)C(=O)N1CCC[C@H]1C(N)=O
notes: Chibby (Cby), human, residues 16-22 with S22P; also called Cby 7-mer S22P; 16RKSA(pS)LP22; source: synthetic peptide, bought: TUFTS University Core Facility

- Kd [4]: 1.3 µM
- stoichiometry N [4]: 1.02
B6: pCby S22P 13-mer (peptide)
peptide: KTPPRKSA[pS]LPNL
notes: Chibby (Cby), human, residues 12-24 with S22P; also called Cby 13-mer S22P; source: synthetic peptide, bought: TUFTS University Core Facility
